Consider one molecule from patent US6866997, “Nucleic acid binding proteins” (Gendaq Limited).

The target in this series is Zif268 DNA-binding domain (UniProt P08046 P08046:333-421). As to the kind of experiment: apparent; text states optimised peptide Kd equals that of wild-type Zif268; curve only in FIG. 7.

B1: Zif268 consensus site (dsDNA)
DNA 1: GCGTGGGCG
DNA 2: CGCCCACGC
B1: the Kd is 3 nM.
